Laboratory results taken from article PMC5773619, “Specific cyclic ADP-ribose phosphohydrolase obtained by mutagenic engineering of Mn^2+-dependent ADP-ribose/CDP-alcohol diphosphatase” (Scientific Reports, 2018).
Residue numbers refer to the chain shown, from its start. Names and notes keep the numbering of the source.

B1: human ADPRibase-Mn (Homo sapiens; C253V) (protein)
chain: MDDKPNPEALSDSSERLFSFGVIADVQFADLEDGFNFQGTRRRYYRHSLLHLQGAIEDWNNESSMPCCVLQLGDIIDGYNAQYNASKKSLELVMDMFKRLKVPVHHTWGNHEFYNFSREYLTHSKLNTKFLEDQIVHHPETMPSEDYYAYHFVPFPKFRFILLDAYDLSVLGVDQSSPKYEQCMKILREHNPNTELNSPQGLSEPQFVQFNGGFSQEQLNWLNEVLTFSDTNQEKVVIVSHLPIYPDASDNVVLAWNYRDALAVIWSHECVVCFFAGHTHDGGYSEDPFGVYHVNLEGVIETAPDSQAFGTVHVYPDKMMLKGRGRVPDRIMNYKKERAFHC
notes: human liver cDNA, pGEX-6P-3-hADPRM, E. coli BL21; GST tag removed with PreScission protease, N-terminal extension … kept
B2: human ADPRibase-Mn (Homo sapiens; C253G/F37A/L196F/V252A) (protein)
chain: B1 chain with F37A, L196F, V252A, V253G
notes: as for B1

Tests used:
Type in all cases: biochemical, Homo sapiens
Conditions in all cases: 50 mM Tris-HCl pH 7.5, 0.4 mM MnCl2, 0.1 mg/ml BSA, 37 °C
[1] = substrate: C[N+](C)(C)CCOP(=O)(O)OP(=O)([O-])OC[C@H]1O[C@@H](n2ccc(N)nc2=O)[C@H](O)[C@@H]1O; assay: colorimetric phosphate assay coupled to alkaline phosphatase
[2] = substrate: Nc1ncnc2c1ncn2[C@@H]1O[C@H](CO)[C@H]2OP(=O)(O)O[C@H]21; assay: as above
[3] = substrate: N=c1c2ncn3c2ncn1[C@@H]1O[C@H](COP(=O)(O)OP(=O)(O)OC[C@H]2O[C@@H]3[C@H](O)[C@@H]2O)[C@@H](O)[C@H]1O; assay: HPLC assay of pRibAMP formation
Excerpt: HPLC assay of pRibAMP formation on human ADPRibase-Mn | displaying a decreased kcat for cADPR (Supplementary Table S1)

[4] = substrate: N=c1c2ncn3c2ncn1[C@@H]1O[C@H](COP(=O)(O)OP(=O)(O)OC[C@H]2O[C@@H]3[C@H](O)[C@@H]2O)[C@@H](O)[C@H]1O; assay: HPLC assay of pRibAMP formation, initial rates, Michaelis-Menten fit
[5] = substrate: C[N+](C)(C)CCOP(=O)(O)OP(=O)([O-])OC[C@H]1O[C@@H](n2ccc(N)nc2=O)[C@H](O)[C@@H]1O; assay: colorimetric phosphate assay coupled to alkaline phosphatase, Michaelis-Menten fit
[6] = substrate: Nc1ncnc2c1ncn2[C@@H]1O[C@H](CO)[C@H]2OP(=O)(O)O[C@H]21; assay: as above

Row | Protein | Km [1] | kcat [1] | Km [2] | kcat [2] | Km [3] | kcat [3] | Km [4] | kcat [4] | Km [5] | kcat [5] | Km [6] | kcat [6]
1 | B1 | 1,120 ± 115 µM | 109 ± 9 s⁻¹ | 2,380 ± 250 µM | 148 ± 8 s⁻¹ | 0.56 ± 0.18 mM | 1.6 ± 0.1 s⁻¹ | – | – | – | – | – | –
2 | B2 | – | – | – | – | – | – | 0.14 mM | 13 s⁻¹ | 10.6 mM | 37 s⁻¹ | 8.7 mM | 12 s⁻¹
